These results are taken from US20100183520A1.

In this test the target is UNC5B netrin-1 receptor on mouse leukocytes / CD4+ T cells (mouse) (UniProt Q8K1S3). Put plainly: cell-based or functional assay.
Sequence of UniProt Q8K1S3 (Q8K1S3 27-945): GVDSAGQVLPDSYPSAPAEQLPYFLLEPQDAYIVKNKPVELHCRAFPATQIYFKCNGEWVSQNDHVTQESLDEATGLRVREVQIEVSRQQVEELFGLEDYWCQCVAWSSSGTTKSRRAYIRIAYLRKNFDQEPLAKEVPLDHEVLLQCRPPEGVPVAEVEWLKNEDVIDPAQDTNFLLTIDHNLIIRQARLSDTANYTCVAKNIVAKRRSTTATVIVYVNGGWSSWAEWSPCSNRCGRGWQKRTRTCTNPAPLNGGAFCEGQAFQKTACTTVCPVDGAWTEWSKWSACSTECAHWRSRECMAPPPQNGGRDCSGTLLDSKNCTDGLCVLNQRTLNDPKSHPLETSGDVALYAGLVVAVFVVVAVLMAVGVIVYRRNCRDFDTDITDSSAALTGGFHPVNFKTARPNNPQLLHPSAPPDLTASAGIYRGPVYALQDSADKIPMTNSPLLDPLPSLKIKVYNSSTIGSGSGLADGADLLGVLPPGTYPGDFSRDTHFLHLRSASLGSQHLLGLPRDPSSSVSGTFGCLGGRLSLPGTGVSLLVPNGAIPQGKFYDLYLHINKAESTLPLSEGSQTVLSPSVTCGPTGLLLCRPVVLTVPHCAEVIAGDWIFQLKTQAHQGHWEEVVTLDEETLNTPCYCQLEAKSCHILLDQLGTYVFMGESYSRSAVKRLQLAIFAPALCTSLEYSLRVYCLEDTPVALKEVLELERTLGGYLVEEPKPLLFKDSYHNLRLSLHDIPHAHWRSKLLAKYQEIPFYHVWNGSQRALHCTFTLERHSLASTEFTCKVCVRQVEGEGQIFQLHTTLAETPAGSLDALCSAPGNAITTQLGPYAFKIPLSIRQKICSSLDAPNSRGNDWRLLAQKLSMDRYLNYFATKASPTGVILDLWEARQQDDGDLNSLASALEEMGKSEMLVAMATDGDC

“recombinant netrin-1 (R&D Systems) (ligand)” came in with an inhibition of anti-CD3 stimulated cytokine production in CD4+CD25- T cells: netrin-1 concentration with maximal inhibition of 500 ng/mL and an inhibition of anti-CD3 stimulated cytokine production in CD4+CD25- T cells: netrin-1 concentration with minimal effect of 100 ng/mL.
